Experimental data from PMC11931385, “Structural and functional analysis of cancer-associated missense variants in the retinoblastoma protein pocket domain” (The Journal of Biological Chemistry, 2025).
No end group written: not given here. TMR = tetramethyl rhodamine dye

T1: Rb^P S474I (human, UniProt P06400 380-788, S474I)
T1 construct: also called variant 11
T1 sequence (looked up): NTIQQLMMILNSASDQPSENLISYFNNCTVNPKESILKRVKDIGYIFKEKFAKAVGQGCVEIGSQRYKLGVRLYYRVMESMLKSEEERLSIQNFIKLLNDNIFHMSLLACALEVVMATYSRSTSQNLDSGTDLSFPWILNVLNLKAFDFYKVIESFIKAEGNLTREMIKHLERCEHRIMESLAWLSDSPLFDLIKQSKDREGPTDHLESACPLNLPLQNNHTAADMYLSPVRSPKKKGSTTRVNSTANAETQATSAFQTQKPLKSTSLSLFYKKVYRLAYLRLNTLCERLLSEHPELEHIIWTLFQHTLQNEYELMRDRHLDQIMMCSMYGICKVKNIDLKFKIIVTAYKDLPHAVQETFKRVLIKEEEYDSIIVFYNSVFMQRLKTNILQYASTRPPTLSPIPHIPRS

T2: Rb^P E492Q (human, UniProt P06400 380-788, E492Q)
T2 construct: also called variant 18
T2 sequence (looked up): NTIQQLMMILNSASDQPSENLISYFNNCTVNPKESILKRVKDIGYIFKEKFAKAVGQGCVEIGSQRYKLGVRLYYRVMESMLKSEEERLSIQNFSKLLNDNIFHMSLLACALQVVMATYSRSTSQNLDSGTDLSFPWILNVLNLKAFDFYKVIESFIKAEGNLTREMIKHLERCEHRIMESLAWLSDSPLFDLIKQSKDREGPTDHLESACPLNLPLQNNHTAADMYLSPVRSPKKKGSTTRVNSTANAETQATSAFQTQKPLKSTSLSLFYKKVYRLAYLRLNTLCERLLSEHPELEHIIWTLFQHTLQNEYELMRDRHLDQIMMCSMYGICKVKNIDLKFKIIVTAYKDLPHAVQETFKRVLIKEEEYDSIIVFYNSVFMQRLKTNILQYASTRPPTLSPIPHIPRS

T3: Rb^P Q444L (human, UniProt P06400 380-788, Q444L)
T3 construct: also called variant 3
T3 sequence (looked up): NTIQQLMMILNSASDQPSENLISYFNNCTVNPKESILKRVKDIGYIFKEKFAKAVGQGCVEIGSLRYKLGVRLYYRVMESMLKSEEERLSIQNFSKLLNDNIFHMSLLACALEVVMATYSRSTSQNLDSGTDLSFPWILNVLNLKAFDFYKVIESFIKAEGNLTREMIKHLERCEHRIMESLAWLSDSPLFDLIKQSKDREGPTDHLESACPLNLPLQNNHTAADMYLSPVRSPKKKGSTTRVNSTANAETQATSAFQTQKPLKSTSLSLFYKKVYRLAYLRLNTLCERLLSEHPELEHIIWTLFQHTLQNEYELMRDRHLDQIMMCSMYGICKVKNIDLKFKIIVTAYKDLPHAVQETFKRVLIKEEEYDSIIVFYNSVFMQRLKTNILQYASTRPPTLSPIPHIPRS

T4: Rb^P E693A (human, UniProt P06400 380-788, E693A)
T4 construct: also called variant 60
T4 sequence (looked up): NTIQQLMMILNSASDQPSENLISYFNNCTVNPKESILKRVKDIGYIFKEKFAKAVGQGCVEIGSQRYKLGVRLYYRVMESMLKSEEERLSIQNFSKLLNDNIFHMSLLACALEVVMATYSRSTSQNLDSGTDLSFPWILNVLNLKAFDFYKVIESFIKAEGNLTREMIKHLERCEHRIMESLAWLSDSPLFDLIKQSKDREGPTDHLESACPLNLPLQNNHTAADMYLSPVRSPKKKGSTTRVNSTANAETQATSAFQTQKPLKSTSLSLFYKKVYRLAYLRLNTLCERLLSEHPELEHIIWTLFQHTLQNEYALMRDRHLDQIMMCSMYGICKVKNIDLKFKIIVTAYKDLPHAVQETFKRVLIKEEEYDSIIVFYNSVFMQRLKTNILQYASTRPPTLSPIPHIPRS

T5: Rb^P R451S (human, UniProt P06400 380-788, R451S)
T5 construct: also called variant 7
T5 sequence (looked up): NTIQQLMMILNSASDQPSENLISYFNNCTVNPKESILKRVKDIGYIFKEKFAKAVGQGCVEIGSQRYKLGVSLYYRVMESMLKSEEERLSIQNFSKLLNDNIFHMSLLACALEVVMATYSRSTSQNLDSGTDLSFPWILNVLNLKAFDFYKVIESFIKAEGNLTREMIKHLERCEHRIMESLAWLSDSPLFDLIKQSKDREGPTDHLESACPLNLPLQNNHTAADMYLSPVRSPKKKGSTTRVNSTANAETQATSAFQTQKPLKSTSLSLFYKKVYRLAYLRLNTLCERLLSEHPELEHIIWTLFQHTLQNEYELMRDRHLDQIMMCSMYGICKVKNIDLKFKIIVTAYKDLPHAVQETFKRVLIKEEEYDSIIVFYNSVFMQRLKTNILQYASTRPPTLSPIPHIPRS


Key:
Experiment in all cases: fluorescence polarisation; 37 °C, after the 25 °C reading ramped over 7 min to 37 °C and 2 min incubation; unlabeled Rb^P against 1.5 nM TMR-E2F1^TD or 7.5 nM TMR-E7^LxCxE; 25 mM Tris pH 8.0, 200 mM NaCl, 1 mM DTT, 0.1% Tween-20; apparent Kd
Settings in all cases: both partners purified
Rb^P S474I = target: T1, Rb^P S474I
Rb^P E492Q = target: T2, Rb^P E492Q
Rb^P Q444L = target: T3, Rb^P Q444L
Rb^P E693A = target: T4, Rb^P E693A
Rb^P R451S = target: T5, Rb^P R451S

| Binder | Kd (Rb^P S474I) | Kd (Rb^P E492Q) | Kd (Rb^P Q444L) | Kd (Rb^P E693A) | Kd (Rb^P R451S) |
| --- | --- | --- | --- | --- | --- |
| {TMR}-GEGIRDLFDCDFGDLTPLD (also called E2F^TD; source: synthetic peptide, bought: GenScript) [TMR-E2F1^TD, peptide of the E2F1 transactivation domain] | 775 nM | 73 nM | 30 nM | 59 nM | 44 nM |
| DLYCYEQLN (also: TMR label, position not given here, source: synthetic peptide, bought: GenScript) [TMR-E7^LxCxE, LxCxE peptide of the E7 oncoprotein from HPV] | 18 nM | 52 nM | 11 nM | 24 nM | 17 nM |
